We go through 41 sequences from the nanobody polyreactivity screen of Harvey et al. (2022).

The nature of this data set: yeast display, Sf9 membrane polyspecificity reagent, FACS + sequencing; frameworks hold sequencing errors. The method, boiled down:
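Nanobodies from a synthetic yeast display library (Saccharomyces cerevisiae BJ5465), induced 36–48 hours with galactose, were stained 1 hour at 4 °C with 10% biotinylated, detergent-solubilized Sf9 membrane reagent, enriched on streptavidin microbeads, then FACS-sorted. Anti-HA (expression) and streptavidin (reagent binding) fluorescence set low and high (top ~1%) gates. Polyreactivity labels come from the gate of origin. Genes were colony-PCR amplified, MiSeq 2 × 250 sequenced and filtered by CDR length.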
Consider “QVQLGESGGGLVQAGGSLRLSCAASGNTFGTYAMGWYRHAPGKERELVAAITWRGGRTTYADSVKGRFTISRDNAKNTVYLQMIRLIPEDTAVYYCAAVIHWWYATYDYWGQGTQVTVSS”, for which the “polyreactivity (PSR sort gate)” value is recorded as “high polyreactivity”.

For “QVQLVESGGGLVQAGGSLRLSCAASGRIFWTNDMGWYRQAPGKERELVAVISSDTGSTDYADSVKGRFTISRDNAKNTVYLQMNSLKPEDTAVFYCNKRGLSRVNYWGQGTQVTVSS”, the “polyreactivity (PSR sort gate)” value is recorded as “low polyreactivity”. As to “QVQLVESGGGLVQAGGSLRLSCAASGSIFHWYVMGWYRQAPGKERELVASISWSSGSTYADSVKGRFTISRDNGKNTVYLQMNSLKPEDTAVYFCNAKTYYPPFGYWGQGTQVTVSS”, the “polyreactivity (PSR sort gate)” value is recorded as “low polyreactivity”. With “QVQLVESGGGLVQAGGSLRLSCAASGRIFQYYDMGWYRQAPGKERELVAAITFSGGSTYYADSVKGRFTISRDNAKNTVYLLMNSLKPEDTAVYYCARGYWVYYPDGDYWGQGTQVTVSS”, the “polyreactivity (PSR sort gate)” value was “low polyreactivity”. Next, “QVQLVESGGGLVQAGGSLRLSCAASGSTFYRYAMGWYRQAPGKEREFVAAISRSGGSTYYADSVKGRFTISRDNAKNTVYLQMNSLKPEDTAVYYCNKYYWYPYGRAHYYGYWGQGTQVTVSS”: “high polyreactivity”. Next, “QVQLVESGGGLVQAGGSLRLSCAASGFIFYFYAMGWYRQAPGKERELVAAISSGGSTNYADSVKGRFTISRDNAQNTVYIQMNSQKPEDTAVYYCNKSGYSKYFLNDYTYWGQGTQVTVSS”: “low polyreactivity”; “QVQLVESGGGLVQAGGSLRLSCAASGRTFVPYAMGWYRQAPGKERELVAAITWSGGRTRYADSVKGRFTISRDNAKNTVFLQMNSLKPEDTAVYYCARYYWLYSSSYDYWGQGTQVTVSS”: “high polyreactivity”; “QVQLVESGGGLVQAGGSLRLSCAASGLTFSKYAMGWYRQAPGQERELVAAITRGDRTYSADSVKGRFTISRDNAKNTVYLQMNSLKPEDTAVYYCAARQYYWGQGTQVTVSS”: “high polyreactivity”.

On to “QVQLVESGGGLVQAGGSLRLSCAASGLIFTYNAMGWYRQAPGKERELVASISWGGGSTYYADSVKGRFTISRDNAKHTVYLQMHSLKPEDTAVYYCNAKFKTVHTYGDTIFDRYDYWGQGTQVTVSS”, for which the “polyreactivity (PSR sort gate)” value is reported as “low polyreactivity”.

Turning to “QVQLVESGGGLVQAGGSLRLSCAASGITFQRYAMGWYRQAPGKERELVAAISTNGGTTYYADSVKGRFTISRDNAKNTVYLQMNSLKPEDTAVYYCNAESGYVYYFRYNYLGQGTQVTVSS”, the “polyreactivity (PSR sort gate)” value is given as “high polyreactivity”. As to “QVQLVESGGGLVQAGGSLRLSCAASGSTFYSNAMGWYRQAPGKERELVAAINYSGGGTYYADSVKGRFTISRDNAKNTVYLQMNSLKPEDTAVYYCAADGSYVHWEYGYWGQGTQVTVSS”, the “polyreactivity (PSR sort gate)” value is listed as “low polyreactivity”.

With “QVQLVESGGGLDQAGGSLRLSCAASGSIFTVNAMGWYRQAPGKERELVAAIDGSSGSTNYADSVKGRFTISRDNAKNTVYLQMNSLKPEDTAVYFCAADWSYEYGYWGQGTQVTVSS”, the “polyreactivity (PSR sort gate)” value is given as “low polyreactivity”. Then “QVLLQESGGGLVQAGGSLRLGCAASGTISPAYYMGRYHHAPGKEREFVAAITYGTNTYYADSVKGRFTISRDNAKNTVNLQMNSLKPADTAVYYCSATAGYNGAHDYWGQGTQVTVSS”, with “low polyreactivity”; and “QVQLVESGGGLVQAGGRLRISSAASGFIFYVNAKGWYRQAPGKERELVAAISWSGGSTYYADSVKGRFTISRDNAKNTVYLQMNSLKPEDPAFYYCAAGASPYEGYDNWGQGTQVTVSS”, with “low polyreactivity”; and “QVQLVESGGGLVQAGGSLRLSCAASGSIFAWYGMGWYRQAPGKERELVAAITSTGSTYYADSVKGRFTISRDNAKNTVYLQMNSLKPEDTAVYDCNAYSVYLWRPGDYWGLGTQVTVSS”, with “low polyreactivity”.

As for “QVQLVESGGGLVPAGGSLRLSCAASGSIFKINAMGWYRQAPGKERELVATITWSTGTTYYADSVKGRFTISRDNAKNTVYLQMNSLKPEDTAVYYCATDGDSTKLDYWGQGTQVTVSS”, the “polyreactivity (PSR sort gate)” value is “low polyreactivity”. For the sequence “QVQLVESGGGLVQAGGSLRLSCAASGSICRQYTMGWYRQAPGKERELVAGINQSGDSTSADSVKGRFTISRDNAKNTVYLQMNSLKPEDTAVYYCNADPRVWYRNIYPGRNYDYWGQGTQVTVSS”, the “polyreactivity (PSR sort gate)” value is listed as “low polyreactivity”. Turning to “QVQLVESGGGLVQAGGSLRLSCAASGRTFIKYAMGWYRPAPGKERELVAAITHRGTNTYYADSVKGRFTISRDNAKYTVYLQMNSLKPEDTAVYYCAAAAPSYPSYDYWGQGTQVTVSS”, the “polyreactivity (PSR sort gate)” value is on record as “low polyreactivity”. Regarding “QVQLVESGGGLVQAGGSLRLSCAASGSILGNAMGWYRQAPGKERELVAAISRNGDSTYYADSVKGRFTISRDNAKNTVYLQMNSLKPEDTAVYYCNAQWFFYGYIAGDYWGQGTQVTVSS”, the “polyreactivity (PSR sort gate)” value is on record as “high polyreactivity”. For the sequence “QVQLVESGGGLVQAGGSLRLSCSASGRTFLGYAMGWYRQPPGKERELVAAISWDGTSTYYADSVKGRFTISRDNAKNNVYLQMNSLKTEDTAVYYCAAQYSYRMDYWGQGTQVTVSS”, the “polyreactivity (PSR sort gate)” value is “low polyreactivity”. Regarding “QVQLVESGGGLVHAGCSLRLSCAASVSTFQVYGLGWYRQAPGKEREMVAAISRSGVRTYYADSVKARFTMSRDNAKNTVYLQMNSLKPEDTAVYYCAKTYQSTTSKSGYYYWGQGTQVTVSS”, the “polyreactivity (PSR sort gate)” value is “high polyreactivity”. Next, “QVQLVESGGVLVQAGGSLRLSCAASGRTFLYNAMGWYRQAPGKERELVAAISSRGARTYYADSVKGRFTISRDNAKKTVYLQMNSLKPEDTAVYYCAASYTTAYYRYDYWGQGTQVTVSS”: “high polyreactivity”.

As for “QVQLVESGGGLVQAGGSLRLSCAASGRIFHGYAMGWYRQAPGKERDLDAAISWRGDSTYYADSVKGRFTISRDNAKNTVYLQINSLKPEDTAVYYCAAASRSWRDDYWGQCTQVTVSS”, the “polyreactivity (PSR sort gate)” value was “low polyreactivity”. In the case of “QVQLVESGGGLVQAGGSLRLSCAASGIFGGYAMGWYIQAPRKERELVAAITSGGSTYYADSVKGRFTISRDNAKNTVYLQMNSLKPEDTAVYYCAARPRGTYSRLGYWGQGTQVTVSS”, the “polyreactivity (PSR sort gate)” value is reported as “high polyreactivity”. Consider “QVQLVESGGGLVQAGGSLRLSCAASGLTFSTYAMGWYRQAPGKERELVAVIRRTGSTYYADSVKGRFTISRDNAKNTVYLQMNSLKPEDTAVYYCATARRHVSGYDYWGQGTQVTVSS”, for which the “polyreactivity (PSR sort gate)” value was “high polyreactivity”. Consider “QVHLVESGGGLVQAGGSLRLSCAASGRIFYGYAMGWYRQAPWKEREFVAAITWRGGTFYADSVKGRFTISRDNAKNTVYLQMNSLKPEDTAVYYCAARVSSYGRYDYWGQGTQVTVSS”, for which the “polyreactivity (PSR sort gate)” value is “high polyreactivity”.

Consider “QVQLVESGGGLVQAGGSLRLSCAASGGTFKANAMGWYRQAPGKERELVAAIRQTGGSTYYADSVKGRFTISRDNAKNTVYLQMNSLKPEDTAVYYCAAQSHRYCIYDYWGQGTQVTVSS”, for which the “polyreactivity (PSR sort gate)” value is “high polyreactivity”.

Regarding “QDQRVESGGGLVQAGGSLRLSCAASGRIFGTYTMGWYRQAPGKERELVAAITTGGITNYADSVKGRFTISRDNAKNTVYLQMYSLKPEDTAVYYCNARWDYGAYEYWGQGTQVTVSS”, the “polyreactivity (PSR sort gate)” value is given as “low polyreactivity”. As to “QLQLVESGGGLVQAGGSLRLSCAPSGSIFLNYAMGWYRQAPGKERELVATIRRRGGSTYSADSVKGRFTISRDNAKNTVYLQMNSLKPDDTAVYYCNAEQLVSRARPYDYWGQGTLVTVSS”, the “polyreactivity (PSR sort gate)” value is “high polyreactivity”. For the sequence “QVQLVESGGGLVQAGGSLRLSCAASGSTYYNAMGWYRQAPRKERELVAAIRFRSGSTYYADSVKGRFTISRDNAKITVYFQMNSLKPEDTAVYYCAADNKRSWRYAYNYWGQGTQVTVSS”, the “polyreactivity (PSR sort gate)” value is listed as “high polyreactivity”.

With “QVQLVESGGGLVQAGGSLRLSCAASGRIFYYYTMGWYRQAPGKERELVADISRGGSTYYADSVKGRFTISRDNAKNTVYLQMNSLKPEDTAVYYCNAVTRIQTSYPSNWGMMDYWGQGTQVTVSS”, the “polyreactivity (PSR sort gate)” value is recorded as “low polyreactivity”. Take “QVQLVESGGRLVQAGGSLRLSCAASGSTYAMGWYRQAPGKERELVASITSRGGSTYYADSVKGRFTISRDNAKNTVYLQMNSLKPEDTAVYYCAARWYFSYIGYDYWGQGTQVTVSS”: the “polyreactivity (PSR sort gate)” value is recorded as “high polyreactivity”. Then “QVQIVESGGGLVQAGGSLRLSCAASGSILYEYAMGWYRQAPGKERELVAAISSGDSTNYADSVKGRFTISRDNAKNTVYLQMNSLNPEDTAVYDCNRDFPRERFTYKFDYWGQGTQVTVSS”, with “low polyreactivity”. For the sequence “QVQLVESGGGLVQAGGILRLSCDASGSIFVYNAMGWYRQAPGKERELVAGITFIGGSTYYADSVKGRFTISRDNAKNTVYLQMNSLKPEDTAVYYCNADVAPGIFYGYDSWGQGTQVTVSS”, the “polyreactivity (PSR sort gate)” value is “low polyreactivity”. Turning to “QVQLVESGGGLVQAGGSLRLSCAASGFSFTRYAMGWYRQAPGKERELVAAIYIGGSTYYADSVKGRFTISRDNAKNTVYFQMNSQKPEDTAVYYCAVDYRHSSSWNAGPWEMYYWGQGTKVTVSS”, the “polyreactivity (PSR sort gate)” value is “low polyreactivity”.

Take “QVQLVESGGGLVQAGGSLRLSCAASGRTFYWNAMGWYRQAPGKERELVAAISWRGGSTYYADSVKGRFTISRDNAKNTVYLQMNSLKPEDTAVYYCAAYHSREYDYWGQGTQVTVSS”: the “polyreactivity (PSR sort gate)” value is “high polyreactivity”.

In the case of “QVQLVESGGGLVQAGGSLRLSCAASGFTFVFYAIGWYRQAPGKARELVAAISSRGGSTYYADSVKGRFTISRDNAKNTVYLQMNSLKPEDTAVYYCNVVSPYWTTYEEYYWGQGTQVTVSS”, the “polyreactivity (PSR sort gate)” value is “high polyreactivity”. Next, “QVQLVESGGGLVQAGGSLRLSCAASGSIFYWYALGWYRQAPGKERELVADITTSDGRTYYADSVKGRFTISRDNAKNTVNLQMNSLKPEDTAVYYCAADPFSGYGFQYYRGLYYWGQGTQVSVSS”: “low polyreactivity”. “QVQLVESGGGLVQAGGSLRLSCAASGRIFRYNTMGWYRQAPGKERELVASITYRGGSTYYADSVKGRFTISRDNAKNTVYLQMNSLKPEDTAVYYCAASPARYWYGGKEYDYWGQGTQVTVSS”: the “polyreactivity (PSR sort gate)” value is recorded as “high polyreactivity”. For “QVQLVESGGGLVQAGGSLRLSCAASGYTFYANAMGWYRQATGKEREFVASITWSGGSTYYADSVKGRFTISRDNAKNTVYLQMNSLKPEDTAVYYCAAESWFKYDYWGQGTQVTVSS”, the “polyreactivity (PSR sort gate)” value is recorded as “low polyreactivity”. For “QDQLVESGGGLVQAGGSHRLSCAASGSTFGVNDMGWYRQAPGKERELVARITGGGSTYYADSVKGRFTISRDNAKNTVYLQMNSLKPEDTAVYYCNAAFWAPQATGYYYWGQGTQVTVSS”, the “polyreactivity (PSR sort gate)” value is “low polyreactivity”.
